Source: US10398755

Assays:
[1] = target: Pro-MMP-9 (recombinant) (Mus musculus (Mouse)) (UniProt P41245); test: cell-based or functional assay
[2] = target: Pro-MMP-9 (recombinant) (Mus musculus (Mouse)) (UniProt P41245); test: CLU-His pull-down with anti-His tag antibody beads, gelatin zymography, densitometry; reference: MMP-9 and MMP-9-ΔC

Sequence of mouse CLU with C-terminal (His)6 (CLU-His), recombinant secreted clusterin (Q06890 other isoform, or with tags, fused parts or gaps): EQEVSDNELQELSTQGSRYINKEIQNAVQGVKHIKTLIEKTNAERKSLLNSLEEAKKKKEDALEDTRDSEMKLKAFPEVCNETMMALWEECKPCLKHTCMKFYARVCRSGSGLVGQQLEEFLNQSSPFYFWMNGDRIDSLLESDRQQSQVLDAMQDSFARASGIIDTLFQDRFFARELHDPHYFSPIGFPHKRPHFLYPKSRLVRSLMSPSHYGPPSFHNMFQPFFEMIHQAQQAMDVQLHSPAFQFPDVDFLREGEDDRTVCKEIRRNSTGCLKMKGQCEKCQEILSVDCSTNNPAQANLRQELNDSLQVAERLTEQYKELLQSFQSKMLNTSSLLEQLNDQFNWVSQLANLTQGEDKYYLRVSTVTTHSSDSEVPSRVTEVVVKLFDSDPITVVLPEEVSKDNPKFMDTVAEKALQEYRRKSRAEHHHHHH

inhibition of MMP-9 activity; FRET peptide substrate, average of three independent experiments, CLU 50 µg/ml [1]: 35% | inhibition of MMP-9 activity; FRET peptide substrate, pro-MMP-9 with APMA, 3 h, CLU 50 µg/ml (0.63 µM) [1]: 28% | fold stronger affinity for CLU than the other forms of MMP-9 (band densities, Image J) [2]: > 10 times
Substance: mouse CLU with C-terminal (His)6 (CLU-His), recombinant secreted clusterin (from UniProt Q06890 22-448)
